Key:
[1] = molecular target: PPARg:RXRa (Homo sapiens, UniProt P37231;P19793 full;full); experiment: no ligand; PBM; 180 nM : 90 nM RXRa; PBS pH 7.4, 2% milk, 0.02% Triton X-100, 1 mM DTT, BSA, 0.4 mg/ml salmon testes DNA; details: tags: His kept;His cleaved; copies: 1;1; label: surface-attached array probe
[2] = molecular target: THRa:RXRa (Homo sapiens, UniProt P10827;P19793 full;full); experiment: no ligand; PBM; 90 nM : 90 nM RXRa; PBS pH 7.4, 2% milk, 0.02% Triton X-100, 1 mM DTT, BSA, 0.4 mg/ml salmon testes DNA; details: tags: His kept;His cleaved; copies: 1;1; label: surface-attached array probe
Chain of THRa:RXRa (P10827 other isoform, or with tags, fused parts or gaps, chain 1 of 2): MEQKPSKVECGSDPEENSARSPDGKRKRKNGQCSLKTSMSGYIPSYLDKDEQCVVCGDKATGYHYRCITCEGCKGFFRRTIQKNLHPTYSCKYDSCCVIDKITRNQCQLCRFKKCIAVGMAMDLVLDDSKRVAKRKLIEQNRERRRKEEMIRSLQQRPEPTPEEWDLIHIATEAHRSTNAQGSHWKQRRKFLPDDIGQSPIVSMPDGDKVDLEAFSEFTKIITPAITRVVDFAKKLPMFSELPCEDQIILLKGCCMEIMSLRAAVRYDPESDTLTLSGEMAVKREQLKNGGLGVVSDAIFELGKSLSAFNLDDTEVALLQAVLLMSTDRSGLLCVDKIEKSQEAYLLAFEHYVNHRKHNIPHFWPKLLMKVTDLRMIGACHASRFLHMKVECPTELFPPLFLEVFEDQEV
Chain of THRa:RXRa (P19793 whole entry, chain 2 of 2): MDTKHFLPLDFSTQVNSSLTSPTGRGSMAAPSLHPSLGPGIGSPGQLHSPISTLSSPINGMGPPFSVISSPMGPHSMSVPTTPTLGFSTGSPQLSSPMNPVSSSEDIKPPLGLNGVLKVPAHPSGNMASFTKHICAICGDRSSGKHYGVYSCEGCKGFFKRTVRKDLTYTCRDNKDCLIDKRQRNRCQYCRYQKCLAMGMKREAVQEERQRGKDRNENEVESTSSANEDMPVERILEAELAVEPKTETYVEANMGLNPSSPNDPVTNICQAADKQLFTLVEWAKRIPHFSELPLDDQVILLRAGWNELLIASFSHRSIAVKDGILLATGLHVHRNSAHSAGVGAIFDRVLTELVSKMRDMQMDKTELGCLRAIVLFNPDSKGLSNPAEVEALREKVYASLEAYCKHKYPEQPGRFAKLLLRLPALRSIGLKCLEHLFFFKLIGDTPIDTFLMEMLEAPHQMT

[3] = molecular target: PXR:RXRa (Homo sapiens, UniProt O75469;P19793 full;full); experiment: no ligand; PBM; 270 nM : 90 nM RXRa; PBS pH 7.4, 2% milk, 0.02% Triton X-100, 1 mM DTT, BSA, 0.4 mg/ml salmon testes DNA; details: tags: His kept;His cleaved; copies: 1;1; label: surface-attached array probe
Chain of PXR:RXRa (O75469 whole entry, chain 1 of 2): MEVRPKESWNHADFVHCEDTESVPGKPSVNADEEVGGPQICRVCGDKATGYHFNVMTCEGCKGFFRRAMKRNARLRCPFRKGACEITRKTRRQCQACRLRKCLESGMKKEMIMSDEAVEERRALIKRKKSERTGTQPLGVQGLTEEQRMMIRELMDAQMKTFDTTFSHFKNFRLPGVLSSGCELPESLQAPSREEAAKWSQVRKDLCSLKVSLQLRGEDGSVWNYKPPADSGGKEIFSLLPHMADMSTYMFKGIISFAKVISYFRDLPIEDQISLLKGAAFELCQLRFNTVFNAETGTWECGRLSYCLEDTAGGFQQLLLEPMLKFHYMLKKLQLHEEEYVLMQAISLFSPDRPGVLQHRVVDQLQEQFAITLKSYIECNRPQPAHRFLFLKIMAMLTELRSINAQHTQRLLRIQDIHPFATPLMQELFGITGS
Chain of PXR:RXRa (P19793 whole entry, chain 2 of 2): as the sequence (P19793 whole entry, chain 2 of 2) above
How it was run: (§1)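 Custom Agilent 4×180K protein-binding microarrays carried double-stranded probes. Their 34-nt variable regions held direct-repeat seeds, single-nucleotide variants, half-site ablations and random human genomic background sequences. Arrays were incubated 1 h with ligand-free nuclear receptor dimers in PBS pH 7.4, 2% milk, 0.02% Triton X-100, 1 mM DTT, 0.2 mg/mL BSA and 0.4 mg/ml salmon testes DNA. Antibodies against each partner (one per run) detected binding, and scanned fluorescence was regression-normalized. Binding z-scores use random background probes as reference.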

[4] = molecular target: RARa:RXRa (Homo sapiens, UniProt P10276;P19793 full;full); experiment: as above; details: tags: His kept;His cleaved; copies: 1;1; label: surface-attached array probe
How it was run: as §1

[5] = molecular target: RARb:RXRa (Homo sapiens, UniProt P10826;P19793 full;full); experiment: as above; details: tags: His kept;His cleaved; copies: 1;1; label: surface-attached array probe
How it was run: as §1

[6] = molecular target: VDR:RXRa (Homo sapiens, UniProt P11473;P19793 full;full); experiment: as above; details: tags: His kept;His cleaved; copies: 1;1; label: surface-attached array probe
Chain of VDR:RXRa (P11473 whole entry, chain 1 of 2): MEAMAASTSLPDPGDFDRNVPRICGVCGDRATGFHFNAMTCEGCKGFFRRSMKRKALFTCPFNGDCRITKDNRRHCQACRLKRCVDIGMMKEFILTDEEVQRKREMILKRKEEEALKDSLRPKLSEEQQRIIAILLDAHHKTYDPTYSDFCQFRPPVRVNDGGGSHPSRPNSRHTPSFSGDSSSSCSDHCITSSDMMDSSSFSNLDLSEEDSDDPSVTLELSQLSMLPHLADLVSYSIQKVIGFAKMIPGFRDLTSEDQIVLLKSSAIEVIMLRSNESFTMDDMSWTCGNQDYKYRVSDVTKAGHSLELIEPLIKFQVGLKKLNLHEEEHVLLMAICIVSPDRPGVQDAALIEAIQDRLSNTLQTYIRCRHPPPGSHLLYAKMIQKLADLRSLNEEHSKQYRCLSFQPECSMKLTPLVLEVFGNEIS
Chain of VDR:RXRa (P19793 whole entry, chain 2 of 2): as the sequence (P19793 whole entry, chain 2 of 2) above
How it was run: as §1

[7] = molecular target: FXR:RXRa (Homo sapiens, UniProt Q96RI1;P19793 full;full); experiment: as above; details: tags: His kept;His cleaved; copies: 1;1; label: surface-attached array probe
Chain of FXR:RXRa (Q96RI1 whole entry, chain 1 of 2): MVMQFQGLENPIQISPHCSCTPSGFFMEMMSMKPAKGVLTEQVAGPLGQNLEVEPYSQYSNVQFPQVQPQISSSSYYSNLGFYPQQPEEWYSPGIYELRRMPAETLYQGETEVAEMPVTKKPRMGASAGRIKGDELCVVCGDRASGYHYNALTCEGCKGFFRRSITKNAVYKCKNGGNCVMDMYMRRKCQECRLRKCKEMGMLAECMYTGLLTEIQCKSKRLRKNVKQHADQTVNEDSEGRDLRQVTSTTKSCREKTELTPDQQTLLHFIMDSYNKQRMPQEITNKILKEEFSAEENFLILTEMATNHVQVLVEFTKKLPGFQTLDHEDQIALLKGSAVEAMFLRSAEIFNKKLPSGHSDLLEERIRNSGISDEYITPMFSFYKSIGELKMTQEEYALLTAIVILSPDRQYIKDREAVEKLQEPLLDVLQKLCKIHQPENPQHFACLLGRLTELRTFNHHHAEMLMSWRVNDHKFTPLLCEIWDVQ
Chain of FXR:RXRa (P19793 whole entry, chain 2 of 2): as the sequence (P19793 whole entry, chain 2 of 2) above
How it was run: as §1

[8] = molecular target: PPARa:RXRa (Homo sapiens, UniProt Q07869;P19793 full;full); experiment: as above; details: tags: GST kept;His cleaved; copies: 1;1; label: surface-attached array probe
How it was run: as §1

[9] = molecular target: LXRb:RXRa (Homo sapiens, UniProt P55055;P19793 full;full); experiment: as above; details: tags: His kept;His cleaved; copies: 1;1; label: surface-attached array probe
How it was run: as §1

[10] = molecular target: RARg:RXRa (Homo sapiens, UniProt P13631;P19793 full;full); experiment: as above; details: tags: His kept;His cleaved; copies: 1;1; label: surface-attached array probe
How it was run: as §1

[11] = molecular target: LXRa:RXRa (Homo sapiens, UniProt Q13133;P19793 full;full); experiment: as above; details: tags: His kept;His cleaved; copies: 1;1; label: surface-attached array probe
How it was run: as §1

[12] = molecular target: RXRa (Homo sapiens, UniProt P19793); experiment: no ligand; PBM; 180 nM; PBS pH 7.4, 2% milk, 0.02% Triton X-100, 1 mM DTT, BSA, 0.4 mg/ml salmon testes DNA; details: tags: His cleaved; chain copies: 2; label: surface-attached array probe

Chain of PPARg:RXRa (P37231 29-505, chain 1 of 2): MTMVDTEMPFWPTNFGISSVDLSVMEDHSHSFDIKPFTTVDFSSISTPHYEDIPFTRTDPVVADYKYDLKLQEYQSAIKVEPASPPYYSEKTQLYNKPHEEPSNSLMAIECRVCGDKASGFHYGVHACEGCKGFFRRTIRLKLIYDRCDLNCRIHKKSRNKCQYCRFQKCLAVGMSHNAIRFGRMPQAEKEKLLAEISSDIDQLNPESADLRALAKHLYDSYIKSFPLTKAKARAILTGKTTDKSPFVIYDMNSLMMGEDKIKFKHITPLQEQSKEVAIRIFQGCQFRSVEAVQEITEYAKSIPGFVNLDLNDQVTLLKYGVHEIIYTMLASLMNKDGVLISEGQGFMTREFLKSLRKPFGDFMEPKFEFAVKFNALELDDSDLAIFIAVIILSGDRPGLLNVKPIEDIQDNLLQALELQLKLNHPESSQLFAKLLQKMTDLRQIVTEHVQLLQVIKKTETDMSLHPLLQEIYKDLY
Chain of PPARg:RXRa (P19793 whole entry, chain 2 of 2): as the sequence (P19793 whole entry, chain 2 of 2) above

Binder	binding signal [1]	binding signal [2]	binding signal [3]	binding signal [6]	further results
NRC3_random_hg19_372_o1 (dsDNA) DNA 1: GCGAGGTTGCAGTGAGCCAAGATTGCACCACTGCACGCGATTGACAGCGTAGAATGAAGG DNA 2: CCTTCATTCTACGCTGTCAATCGCGTGCAGTGGTGCAATCTTGGCTCACTGCAACCTCGC	-0.12 PBM z-score against 500 random probes	-0.05 PBM z-score against 500 random probes	–	–	–
NRC3_random_hg19_233_o1 (dsDNA) DNA 1: GCTACAAAGTACTGGGATCCTCCCAACAGCCTGCAAGCGATTGACAGCGTAGAATGAAGG DNA 2: CCTTCATTCTACGCTGTCAATCGCTTGCAGGCTGTTGGGAGGATCCCAGTACTTTGTAGC	0.13 PBM z-score against 500 random probes	-0.3 PBM z-score against 500 random probes	-0.22 PBM z-score against 500 random probes	–	–
NRC3_wobSeed133_DR5_G26C_o1 (dsDNA) DNA 1: GCCGTCCAAGGTCAATGCTAGGTCACTGAAAGCATTGCGATTGACAGCGTAGAATGAAGG DNA 2: CCTTCATTCTACGCTGTCAATCGCAATGCTTTCAGTGACCTAGCATTGACCTTGGACGGC	–	4.78 PBM z-score against 500 random probes	–	–	binding signal [4]: 7.16 PBM z-score against 500 random probes
NRC3_wobSeed133_DR5_C18T_o1 (dsDNA) DNA 1: GCCGTCCAAGGTCAATGTTAGGTCAGTGAAAGCATTGCGATTGACAGCGTAGAATGAAGG DNA 2: CCTTCATTCTACGCTGTCAATCGCAATGCTTTCACTGACCTAACATTGACCTTGGACGGC	4 PBM z-score against 500 random probes	5.15 PBM z-score against 500 random probes	–	–	binding signal [5]: 5.45 PBM z-score against 500 random probes
NRC3_random_hg19_119_o1 (dsDNA) DNA 1: GCCCTACCCTCCTCCCTGTCACTCGCCAGTCCCAGCGCGATTGACAGCGTAGAATGAAGG DNA 2: CCTTCATTCTACGCTGTCAATCGCGCTGGGACTGGCGAGTGACAGGGAGGAGGGTAGGGC	-0.75 PBM z-score against 500 random probes	-0.04 PBM z-score against 500 random probes	–	0.49 PBM z-score against 500 random probes	–
NRC3_random_hg19_402_o1 (dsDNA) DNA 1: GCTGAGGTGCTTCAGAGATGTCCACTCCTGCTGGCTGCGATTGACAGCGTAGAATGAAGG DNA 2: CCTTCATTCTACGCTGTCAATCGCAGCCAGCAGGAGTGGACATCTCTGAAGCACCTCAGC	-0.45 PBM z-score against 500 random probes	-0.6 PBM z-score against 500 random probes	-0.8 PBM z-score against 500 random probes	–	binding signal [7]: -0.38 PBM z-score against 500 random probes; binding signal [8]: -0.4 PBM z-score against 500 random probes
NRC3_wobSeed49_DR2_T8G_o1 (dsDNA) DNA 1: GCCAAACGAGGTCAAGAGGTCAAAGTCCGCTTCCCGGCGATTGACAGCGTAGAATGAAGG DNA 2: CCTTCATTCTACGCTGTCAATCGCCGGGAAGCGGACTTTGACCTCTTGACCTCGTTTGGC	–	5.13 PBM z-score against 500 random probes	7.24 PBM z-score against 500 random probes	7.24 PBM z-score against 500 random probes	binding signal [7]: 8.68 PBM z-score against 500 random probes; binding signal [5]: 6.35 PBM z-score against 500 random probes; binding signal [9]: 6.98 PBM z-score against 500 random probes; binding signal [10]: 9.13 PBM z-score against 500 random probes; binding signal [11]: 7.08 PBM z-score against 500 random probes; binding signal [8]: 7.33 PBM z-score against 500 random probes; binding signal [12]: 9.6 PBM z-score against 500 random probes
NRC3_wobSeed120_DR4_G22T_o1 (dsDNA) DNA 1: GCCCGAGTAGGTTACGAGGGGTCATTCAGTGCGAATGCGATTGACAGCGTAGAATGAAGG DNA 2: CCTTCATTCTACGCTGTCAATCGCATTCGCACTGAATGACCCCTCGTAACCTACTCGGGC	–	4.77 PBM z-score against 500 random probes	6.59 PBM z-score against 500 random probes	6.94 PBM z-score against 500 random probes	binding signal [9]: 7.35 PBM z-score against 500 random probes; binding signal [11]: 8.11 PBM z-score against 500 random probes
NRC3_random_hg19_227_o1 (dsDNA) DNA 1: GCGAAGGAAGGAAGGAAGGAAGGAAGGAAGGAAGGCGCGATTGACAGCGTAGAATGAAGG DNA 2: CCTTCATTCTACGCTGTCAATCGCGCCTTCCTTCCTTCCTTCCTTCCTTCCTTCCTTCGC	-0.31 PBM z-score against 500 random probes	-0.49 PBM z-score against 500 random probes	-0.88 PBM z-score against 500 random probes	–	binding signal [12]: -1.01 PBM z-score against 500 random probes

Source: PMC6555819, “Comprehensive study of nuclear receptor DNA binding provides a revised framework for understanding receptor specificity”
